Data published in publication PMC3112360.

Assays:
[1] = molecular target: homocysteinylated FN40K fragment (human) (UniProt P02751); assay: ELISA
[2] = molecular target: homocysteinylated fibronectin (human (endogenous in primary human dermal fibroblasts)) (UniProt P02751); assay: ELISA
Chain of homocysteinylated fibronectin (human (endogenous in primary human dermal fibroblasts)) (P02751 32-2477): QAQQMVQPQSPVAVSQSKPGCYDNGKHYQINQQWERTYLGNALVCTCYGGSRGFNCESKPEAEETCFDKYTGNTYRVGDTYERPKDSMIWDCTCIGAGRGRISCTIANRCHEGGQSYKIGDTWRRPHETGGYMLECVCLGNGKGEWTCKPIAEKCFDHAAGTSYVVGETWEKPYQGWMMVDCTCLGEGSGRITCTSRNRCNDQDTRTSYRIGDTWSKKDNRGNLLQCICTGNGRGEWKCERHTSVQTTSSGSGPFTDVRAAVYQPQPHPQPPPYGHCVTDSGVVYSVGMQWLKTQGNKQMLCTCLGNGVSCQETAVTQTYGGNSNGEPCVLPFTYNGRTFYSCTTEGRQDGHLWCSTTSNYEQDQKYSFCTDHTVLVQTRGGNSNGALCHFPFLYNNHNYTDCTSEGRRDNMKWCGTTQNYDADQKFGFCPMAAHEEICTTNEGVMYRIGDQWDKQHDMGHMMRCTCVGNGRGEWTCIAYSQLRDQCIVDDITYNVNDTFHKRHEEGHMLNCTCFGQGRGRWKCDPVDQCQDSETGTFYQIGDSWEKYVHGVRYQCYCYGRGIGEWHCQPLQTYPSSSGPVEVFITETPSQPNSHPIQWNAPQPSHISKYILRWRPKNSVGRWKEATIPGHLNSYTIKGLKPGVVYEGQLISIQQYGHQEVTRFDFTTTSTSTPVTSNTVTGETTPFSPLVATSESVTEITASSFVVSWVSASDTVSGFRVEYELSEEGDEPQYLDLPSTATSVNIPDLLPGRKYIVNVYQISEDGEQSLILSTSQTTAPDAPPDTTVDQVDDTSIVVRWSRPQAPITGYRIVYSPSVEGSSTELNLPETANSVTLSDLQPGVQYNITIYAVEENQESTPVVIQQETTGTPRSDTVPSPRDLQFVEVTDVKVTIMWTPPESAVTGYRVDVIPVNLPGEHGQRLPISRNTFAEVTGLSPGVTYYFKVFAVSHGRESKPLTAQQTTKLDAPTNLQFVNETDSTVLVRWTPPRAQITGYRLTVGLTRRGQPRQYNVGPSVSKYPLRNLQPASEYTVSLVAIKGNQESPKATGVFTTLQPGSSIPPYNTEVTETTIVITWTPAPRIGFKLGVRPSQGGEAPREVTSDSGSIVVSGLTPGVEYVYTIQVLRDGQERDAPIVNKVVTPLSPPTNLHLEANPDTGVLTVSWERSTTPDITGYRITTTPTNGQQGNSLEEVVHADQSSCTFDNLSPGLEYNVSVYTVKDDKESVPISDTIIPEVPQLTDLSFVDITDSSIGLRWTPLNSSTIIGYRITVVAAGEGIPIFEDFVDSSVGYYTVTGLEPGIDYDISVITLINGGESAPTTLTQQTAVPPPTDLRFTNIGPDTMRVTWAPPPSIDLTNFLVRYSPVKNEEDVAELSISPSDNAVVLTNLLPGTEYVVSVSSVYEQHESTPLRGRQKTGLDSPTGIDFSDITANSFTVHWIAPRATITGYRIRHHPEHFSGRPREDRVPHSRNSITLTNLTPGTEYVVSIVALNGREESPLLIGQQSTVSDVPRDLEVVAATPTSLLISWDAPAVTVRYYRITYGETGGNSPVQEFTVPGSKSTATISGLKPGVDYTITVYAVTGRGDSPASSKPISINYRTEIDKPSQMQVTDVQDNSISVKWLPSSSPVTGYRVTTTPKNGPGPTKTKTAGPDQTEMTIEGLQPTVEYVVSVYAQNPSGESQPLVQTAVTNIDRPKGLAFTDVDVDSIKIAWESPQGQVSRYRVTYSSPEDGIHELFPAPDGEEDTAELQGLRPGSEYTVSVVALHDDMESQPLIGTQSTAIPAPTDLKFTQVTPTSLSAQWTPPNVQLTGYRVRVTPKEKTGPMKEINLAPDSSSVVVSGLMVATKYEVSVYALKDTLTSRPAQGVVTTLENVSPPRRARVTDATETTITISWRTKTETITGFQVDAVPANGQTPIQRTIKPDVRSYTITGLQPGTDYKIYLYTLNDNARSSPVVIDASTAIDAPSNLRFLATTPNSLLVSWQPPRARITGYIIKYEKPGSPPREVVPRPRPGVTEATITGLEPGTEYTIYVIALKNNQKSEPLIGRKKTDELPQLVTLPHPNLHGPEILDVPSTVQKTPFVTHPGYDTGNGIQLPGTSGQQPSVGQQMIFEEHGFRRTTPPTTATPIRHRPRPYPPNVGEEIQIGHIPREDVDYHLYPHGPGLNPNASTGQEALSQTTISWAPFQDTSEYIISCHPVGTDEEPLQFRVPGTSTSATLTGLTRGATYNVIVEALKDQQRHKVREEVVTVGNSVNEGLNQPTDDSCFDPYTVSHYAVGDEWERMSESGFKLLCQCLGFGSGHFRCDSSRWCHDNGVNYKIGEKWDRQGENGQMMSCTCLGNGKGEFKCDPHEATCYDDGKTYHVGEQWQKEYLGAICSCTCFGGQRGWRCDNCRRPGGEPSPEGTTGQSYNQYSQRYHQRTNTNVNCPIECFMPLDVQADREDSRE

Chain of homocysteinylated FN40K fragment (human) (P02751 32-2477): as above

recombinant C-terminal half of fibrillin-1 (rFBN1-C) (from UniProt P35555 45-2731) (domain or fragment)
relative reduction in binding against the non-modified control [1]: 34.1% | relative reduction in binding against the non-modified control [2]: 65%
